Where a chain is given by its changes, count along the chain named.
B1: H1M852N (antibody, V domains shown)
VH: QVQLVESGGGVVQPGRSLTLSCAASGFMFNRFGMHWVRQAPGKGLDWVAVIWYDGSNKYYADSVKGRFTISRDNSKNTLYLQVNSLRAEDTAVYYCAREGTPHYYDSSGLDYWGQGTLVTVSS
VL: AIQMTQSPSSLSAYVGDRVTITCRASQDIRNDLGWYQQKPGKAPNLLIYDISSLQSGVPSRFSGSGSGTDFTLTISSLQPEDFATYYCLQDYNYPLTFGGGTKVEIK
notes: constant region may differ; also called H4H852N
B2: H1H1006B (antibody, V domains shown)
VH: EVQLVESGPGLVKSSETLSLKCTVSGGSISSSGYYWGWIRQPPGKGLEWIGSIHRSGSTFYNPSLKSRVTISVDTSKSQFSLRLTSVTAADTSVYFCGRHGRDYYYGMDVWGQGTTVTVSS
VL: DIQMTQSPSSVSASVGDRVTITCRSSQDINNWLVWYQQKPGKAPKVLIYGASRLQSGVPSRFSGSGSGTDFTLTISSLQPEDFATYYCQQANSFPLTFGGGTKVEIKR
notes: Fully human antibody; also called H4H1006B-1
B3: H1M797N (antibody, V domains shown)
VH: QVQLVESGGGVVQPGRSLRLSCAASGFTFSSYGMHWVRQAPGKGLEWVAVISYDGNNKHFADSVKGRFTISRDNSKNTLNLQMNSLRAEDRAVYYCARGASGFVLDIWGQGTMVTVSS
VL: DIVMTQTPLSSPVTLGQPASISCRSSQSLVRSDGNTYLSWLQQRPGQPPRLLIYKISNRFSGVPDRFSGSGAGTDFTLKISRVEAEDVGIYFCMQTTQFPFTFGPGTKVDIK
B4: H1M836N (antibody, V domains shown)
VH: QVQLVESGGGVVQPGRSLRLSCAASGFTFSSYGMHWVRQAPGKGLEWVAVISYDGNNKYYADSVKGRFTISRDNSKNTLYLQMNSLRAEDTAVYYCAKGSAGYALDYWGQGTLVTVSS
VL: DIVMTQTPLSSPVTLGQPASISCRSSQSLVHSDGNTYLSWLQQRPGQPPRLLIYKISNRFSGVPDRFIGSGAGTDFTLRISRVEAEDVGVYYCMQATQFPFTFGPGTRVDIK
B5: H1M879N (antibody, V domains shown)
VH: EVQLVESGGGLVKPGGSLRLSCAASGFTFSSYTIHWVRQAPGKGLEWVSSISSSSSYIYYVDSVKGRFTISRDNAKNSVYLQMNSLRAEDTAVYYCATSSITARGYFDYWGQGTLVTVSS
VL: EIVLTQSPATLSLSPGERVTLSCRASQSVSSYLAWYQQKPGQAPRLLIYDASNRATGIPARFSGSGSGTDFTLTISSLEPEDFAVYYCQQRNIWPPTFGQGTKVEIK
notes: Hybridoma-derived
B6: H1M801N (antibody, V domains shown)
VH: QVQVVESGGGVVQPGRSLRLSCAASGFTFSNYGMHWVRQAPGKGLEWVTVISYDGSNKNYADSVKGRFTISRDNSKNTLYLQMNSLRAEDTAMYYCARGGSGFAFDIWGQGTMVTVSS
VL: B3 VL with E86D, I90V, F92Y
notes: also called H1H801N

What follows are binders tested against full-length human Nav1.7 fused at its N-terminus to GFP, expressed in HEK293 cells (human, UniProt Q15858 1-1988) (assay: cell-based or functional assay).
For B1, the “Current blocking (Average % inhibition), IonWorks Quattro, 223 nM antibody” value (from here on “Current blocking (Average % inhibition)”) was 7%. B2 was tested, and the “Current blocking (Average % inhibition)” value was 64%. With B3 the “Current blocking (Average % inhibition)” value was -31%.

Biological target: T1, N-Term Biotin Nav1.7 (3-1) peptide, mulatta (mulatta (monkey), not fully specified; N-terminal biotin attached via a G4S linker)
T1 construct: Synthetic peptide; also called Mulatta Nav1.7 3-1 N-term biotin; monkey
T1 peptide: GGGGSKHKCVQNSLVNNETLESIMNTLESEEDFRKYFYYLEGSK
Test: ELISA on coated peptide, antibody 1 ug/ml, OD450 grade
Outline: (§1)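 Binding graded from absorbance at OD450 for antibodies applied at 1 μg/ml (− below 0.2, + 0.2–1, ++ 1–2, +++ 2–4; NT not tested); antibodies were also run at 0.1 μg/mL. Biotin-peptides at 0.4 μg/mL on avidin-coated plates, other peptides at 4 μg/mL; 1 h RT binding; HRP anti-IgG/TMB detection.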
B2 gave an OD450 of 2 to 4 od. Binder B4 has an OD450 of 2 to 4 od. Work on B5 yielded an OD450 of 2 to 4 od. B3 gave an OD450 of 2 to 4 od. Work on B6 yielded an OD450 of 2 to 4 od.

Biological target: T2, N-Term Biotin Nav1.7 (3-1) peptide, mouse (mouse, not fully specified; N-terminal biotin attached via a G4S linker)
T2 construct: Synthetic peptide; also called Mouse Nav1.7 3-1 N-term biotin
T2 peptide: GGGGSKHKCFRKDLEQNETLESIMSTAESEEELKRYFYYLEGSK
Test: as above
Outline: as §1
B2 was tested, and the OD450 was 2 to 4 od. For B3, the OD450 was 2 to 4 od. Binder B6 has an OD450 of 1 to 2 od.

Biological target: T3, N-Term Biotin-Nav1.7 (3-1) peptide, human (human, not fully specified; N-terminal biotin attached via a G4S linker)
T3 construct: ELISA peptide
T3 peptide: T1 peptide with V10F, Q11R, V15E
Test: as above
Outline: as §1
B2 was tested, and the OD450 was 2 to 4 od. B4 showed an OD450 of 2 to 4 od. With B5 the OD450 was 2 to 4 od. Binder B3 has an OD450 of 2 to 4 od. In the case of B6, the OD450 is reported as 1 to 2 od.

Biological target: T4, Native Nav1.7 (3-1) peptide, rat (rat)
T4 construct: Synthetic peptide; also called Rat Nav1.7 3-1 native
T4 peptide: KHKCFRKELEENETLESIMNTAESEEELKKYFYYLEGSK
Test: as above
Outline: as §1
Binder B2 has an OD450 of 2 to 4 od. With B4 the OD450 was 1 to 2 od. B3 showed an OD450 of 2 to 4 od. B6 was tested, and the OD450 was 1 to 2 od.

Biological target: T1, N-Term Biotin Nav1.7 (3-1) peptide, …
Test: SPR, captured antibody, peptide analyte
Outline: (§2)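 Peptide analytes flowed at multiple concentrations over anti-Nav1.7 antibodies held by an anti-Fc capture surface. After reference-surface and buffer-blank subtraction, a global 1:1 Langmuir fit gave ka and kd, with KD as kd/ka and dissociative half-life as ln2/kd.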
With B2 the Kd was 6.1 nM and the t1/2 was 7.5 min. Work on B4 yielded a Kd of 18.1 nM and a t1/2 of 1.7 min. B5 was tested, and the Kd was 1.05 nM and the t1/2 was 11.7 min. B3 was tested, and the Kd was 0.435 nM and the t1/2 was 43.7 min. B6 was tested, and the Kd was 0.889 nM and the t1/2 was 16.8 min.

Biological target: T2, N-Term Biotin Nav1.7 (3-1) peptide, …
Test: SPR, captured antibody, peptide analyte
Outline: as §2
B2 was tested, and the Kd was 103 nM and the t1/2 was 0.62 min. B5: no binding. For B3, the Kd was 7.4 nM and the t1/2 was 4.6 min. For B6, the Kd was 3.53 nM and the t1/2 was 4.2 min.

Biological target: T5, Native Nav1.7 (3-1) peptide, human (human)
T5 construct: Synthetic peptide (Celtek), unbiotinylated; also called Human Nav1.7 3-1 native; Nav1.7 3-1 native peptide
T5 peptide: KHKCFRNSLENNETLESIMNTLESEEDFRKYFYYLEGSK
Test: SPR, captured antibody, peptide analyte
Outline: as §2
B2 gave a Kd of 16.4 nM and a t1/2 of 3.3 min. For B4, the Kd was 332 nM and the t1/2 was 0.3 min. B5 showed a Kd of 4.43 nM and a t1/2 of 3 min. With B3 the Kd was 0.462 nM and the t1/2 was 16 min. With B6 the Kd was 3.73 nM and the t1/2 was 4.3 min.

Biological target: T4, Native Nav1.7 (3-1) peptide, rat
Test: SPR, captured antibody, peptide analyte
Outline: as §2
B2 gave a Kd of 33.9 nM and a t1/2 of 0.74 min. With B4 the Kd was 298 nM and the t1/2 was 0.1 min. B5: no binding. In the case of B3, the Kd is reported as 2.57 nM and the t1/2 is reported as 5.8 min. For B6, the Kd was 4.16 nM and the t1/2 was 3.6 min.
